Tests used:
Vk(E5)-scArc-HA = Vk(E5)-scArc-HA (Phage P22 / human Vk); experiment: co-capture PCR; recovered also on beta-galactosidase; details: tags: N-terminal Vk(E5) dAb fusion, C-terminal HA; chain copies: 2 scArc per operator (stated)
Experimental: The monoclonal high-affinity α-HA mAb 3F10 recognises the C-terminal HA tag, β-galactosidase and protein L can be expected to interact with the $V_\kappa$(E5) light chain domain, while BSA serves as the negative control. At the end of the incubation the coating solution is removed and the first blocking solution consisting of 150 µl of 10 ng/ml biotinylated BSA (Sigma) in PBS is added to the wells and incubated for 15 minutes. At the end of the incubation the wells are washed three times with 150 µl of PBS and blocked additionally for 30 min at room temperature with buffer C+.
25 µl S30 in vitro translation reactions (EcoPro T7, Novagen) are assembled according to the manufacturer's instructions and supplemented with 1.5 µl of 1.7 mM PCR-amplified template in 0.1 mg/ml RNA and 0.75 µl of 100 mM oxidized glutathione. Translation reactions are incubated at 23° C. for 4 hours and diluted with 150 µl of buffer C+ (10 mM Tris, 100 mM KCl, 0.05% Tween 20, 5 mM MgCl_2, 0.1 mM EDTA, 1% w/v BSA) before being applied in 50 µl aliquots to the pre-coated tubes cut from Strep Thermofast 96-well plates (Advanced Biotech) and allowed to bind for 30 min at room temperature. […]
The PCR amplification products are analysed by 1% agarose gel electrophoresis in TAE in the presence of ethidium bromide and imaged using GeneGeius Bio Imaging System (Syngene). […]

[1] = target: scFv(31IJ1)-(KEAAA)6-scArc-HA (Phage P22 / human scFv?); experiment: co-capture on protein A, protein L, fluorescein; with anti-HA 3F10; details: tags: N-terminal scFv fusion, C-terminal HA; chain copies: 2 scArc per operator (inferred)
Experimental: In the solution expression experiments 3 µl of 1.7 nM PCR-amplified pIE7aA, pIE7a2A, pIE7a3A, pIE7a4A, pIE7aA-scFv(31IJ1), pIE7a2A-scFv(31 Ul), pIE7a3A-scFv (31IJ1) or pIE7a4A-scFv(31IJ1) template in 0.2 mg/ml tRNA is added to 25 µl EcoPro T7 in vitro translation mix (Novagen), supplemented with 0.75 µl of 100 mM oxidized glutathione (Sigma) and 0.25 µl […] 3F10 αHA mAb (Roche). Each reactions is split into three 9 µl aliquots. Two of the three in vitro translation aliquots of pIE7aA-scFv(31IJ1), pIE7a2A-scFv(31IJ1), pIE7a3A-scFv(31IJ1) or pIE-7a4A-scFv(31IJ1) are immediately combined with the aliquots of pIE7aA, pIE7a2A, pIE7a3A or pIE7a4A expression reactions respectively, one before and the other after the four-hour incubation at 25° C.
During the translation reaction the streptavidin-coated PCR tubes, cut from Strep Thermofast 96-well plates (Abgene), are first incubated at room temperature for three hours with 50 µl of at least 40 nM biotinylated protein A (Sigma), protein L (Pierce) fluorescein (Molecular Probes) of BSA (Sigma) in PBS. The coating buffer is thereafter removed and any remaining free biotin-binding sites are blocked with a 15 min pulse of 50 µg/ml biotinylated BSA in PBS. The pre-coated wells are thereafter three times washed with PBS and then filled with 100 µl of binding buffer C+ (100 mM KCl, 20 mM Tris, 5 mM MgCl2, 0.05% Tween 20, 0.05 mM EDTA, 1% BSA). […]

B1: Arc operator, one copy, on linear genetic element (dsDNA)
DNA 1: ATGATAGAAGCACTCTACTAT
DNA 2: ATAGTAGAGTGCTTCTATCAT
- binding result (Vk(E5)-scArc-HA): binds
- binding result [1]: binds

— US8084213, “Selection” (Domantis Limited)
